Experimental data reported in patent US20130189259A1 (INSERM INSTITUT NATIONAL DE LA SANTE ET DE LA RECHERCHE …, published 2013).
Several values for one entry are separate records, joined by “and”; a condition that tells them apart may be missing. Identical values can stand only once. Each block holds one molecule with its values, some of them ahead of it.

Tests used:
[1] = target: human glycoprotein VI on human platelets (human) (UniProt Q9HCN6); assay: flow cytometry, periplasmic extract on human platelets, FITC anti-c-myc
[2] = target: human glycoprotein VI on human platelets (human) (UniProt Q9HCN6); assay: flow cytometry of washed human platelets with an irrelevant scFv, FITC-coupled anti-c-myc IgG [top panel]
[3] = target: human glycoprotein VI on human platelets (human) (UniProt Q9HCN6); assay: flow cytometry of human platelets with bacterial periplasmic extract, FITC-coupled anti-c-myc antibody [upper panel]
[4] = target: T1, recombinant soluble human GPVI (GPVI-Fc) (human, UniProt Q9HCN6 21-267); assay: SPR (BIAcore 2000), GPVI-Fc immobilized on CM5, first series
T1 construct: extracellular domain; also called soluble recombinant GPVI; purified GPVI; not shown: human Ig Fc domain
T1 sequence (looked up): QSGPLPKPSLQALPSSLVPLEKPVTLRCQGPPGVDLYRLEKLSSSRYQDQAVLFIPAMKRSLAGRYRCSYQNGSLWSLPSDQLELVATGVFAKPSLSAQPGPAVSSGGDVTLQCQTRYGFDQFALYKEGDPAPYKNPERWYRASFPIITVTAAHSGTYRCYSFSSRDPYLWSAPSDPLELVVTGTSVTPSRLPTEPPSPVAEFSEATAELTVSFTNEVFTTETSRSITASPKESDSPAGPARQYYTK
Procedure: (§1) Binding of the anti-GPVI scFv to recombinant GPVI-Fc is analyzed with surface plasmon resonance using a BIAcore 2000 system (Uppsala, Sweden). Binding studies is performed with scFv 9O12, Proteolytic Fab and parental IgG.
(§2) Recombinant GPVI-Fc is immobilized (˜600 RU) onto a Carboxy-Methyl Dextran CM5 sensor chip using the amine coupling method (Wizard procedure). Antibody is then passed over the immobilized recombinant GPVI-Fc in HBS-EP buffer (0.01 M HEPES pH 7.4, 0.15 M NaCl, 0.005% polysorbate 20 (v/v)) at a flow rate of 20 μl/min at 25° C. Kinetic constants (kₐ, kd) and affinity are determined using BIAevaluation version 3.1 software, by fitting data to binding model. HBS-EP is the running buffer. 10 mM glycine-HCl pH 2.5 injected for 30 s at 20 μl/min is the regeneration buffer. All reagents and buffers used are from Biacore.

[5] = target: T1, recombinant soluble human GPVI (GPVI-Fc); assay: inhibition of GPVI-Fc binding to immobilized collagen, ELISA
Procedure: (§3) FIG. 9. Inhibition of GPVI binding to immobilized collagen. GPVI-Fc was incubated on immobilized collagen in the presence of increasing amounts of antibodies: scFv 9O12.2 (triangle), or pFab (square) (A): 2 μg of GP VI-Fc; (B): 4 μg of GPVI-Fc Bound GPVI-Fc was detected using an HRP coupled anti-Fc IgG.

[6] = target: T1, recombinant soluble human GPVI (GPVI-Fc); assay: SPR (BIAcore 2000), GPVI-Fc immobilized on CM5, second series
Procedure: as §1, §2

[7] = target: T1, recombinant soluble human GPVI (GPVI-Fc); assay: blocking ELISA: 4 µg GPVI-Fc on immobilized collagen with increasing antibody fragment; blocked ligand: fibrillar type I collagen; bound GPVI-Fc detected with HRP-coupled anti-Fc
Procedure: as §3

[8] = target: T1, recombinant soluble human GPVI (GPVI-Fc); assay: competition ELISA on GPVI-Fc coated plates; competitor: scFv 9O12.2 at a fixed concentration (60 µg/mL in the legend, 100 µg/ml in the methods), bound scFv detected with HRP-coupled anti-c-myc
[9] = target: T1, recombinant soluble human GPVI (GPVI-Fc); assay: SPR against immobilized GPVI (procedure as in Example 1)

% positive platelets [1]: 0.17%
% positive platelets (FITC count) [2]: 0.17%
% positive platelets (FITC count) [3]: 0.03%
Molecule: irrelevant scFv (c-myc tagged negative control)

Kd [4]: 4.5 nM
IC50 [5]: 2.1 µg/mL and 15 nM
Kd [6]: 2.3 nM
IC50 (read off the curve) [7]: ~7 µg/mL
B1: 9O12.2 Fab fragment prepared by papain digestion of the parental IgG (Fab, V domains shown)
VH: QVQLQESGAELVKPGASVKMSCKASGYTFTSYNMHWVKQTPGQGLEWIGGIYPGNGDTSFNQKFKGKATLTADKSSRTAYMQLSSLTSEDSAVYYCARGTVVGDWYFDVWGAGTTLTVSS
VL: DVLMTQTPLSLPVSLGDQASISCRSSQSLENSNGNTYLNWYLQKPGQSPQLLIYRVSNRFSGVLDRFSGSGSGTDFTLKISRVEAEDLGVYFCLQLTHVPWTFGGGTKLEIK
notes: Papain Fab of the murine IgG1 kappa antibody; also called Fab 9O12.2; Fab 9O12

Kd [4]: 6.5 nM
Kd [6]: 4 nM
IC50 (read off the curve) [8]: ~20 µg/mL
B2: 9O12.2 monoclonal anti-human GPVI antibody (murine IgG1, kappa) (antibody, V domains shown)
VH: B1 VH
VL: B1 VL
notes: The VL is therefore written as 136-247; also called 9O12.2 IgG; IgG 9O12.2

Kd [9]: 3.2 nM
koff [9]: 0.000186 s⁻¹
kon [9]: 58000 M⁻¹ s⁻¹
B3: second optimized humanized scFv 9O12.2 fragment, hscFv 9O12.2(2) (scFv)
scFv: QVQLQESGAEVKKPGASVKVSCKASGYSFTSYNMHWVRQAPGQRLEWMGGIYPGNGDTSFNQKFKGKATLTADKSSRTAYMGLSSLRPEDTAVYYCARGTVVGDWYFDVWGQGTLVTVSSGGGGSGGGGSGGGGSDVLMTQTPLSLPVSLGDQASISCRSSQSLENSNGNTYLNWYLQKPGQSPQLLIYRVSNRFSGVLDRFSGSGSGTDFTLTISSLQPEDFAIYYCLQLTHVPWTFGGGTKVEIKRSRVTVSSDQKLISEEDLN
notes: Murine VL FR1 and FR2 are kept; Detected through its c-myc flag

Kd [4]: 2.5 nM
IC50 [5]: ~1.17 µg/mL and ~42 µM
Kd [6]: 2.6 nM
koff [6]: 0.00017 s⁻¹
kon [6]: 65000 M⁻¹ s⁻¹
IC50 (read off the curve) [7]: ~4 µg/mL
B4: murine single chain variable fragment scFv 9O12.2 (VH-(Gly4Ser)3-VL, spacer, c-myc flag) (scFv)
scFv: QVQLQESGAELVKPGASVKMSCKASGYTFTSYNMHWVKQTPGQGLEWIGGIYPGNGDTSFNQKFKGKATLTADKSSRTAYMQLSSLTSEDSAVYYCARGTVVGDWYFDVWGAGTTLTVSSGGGGSGGGGSGGGGSDVLMTQTPLSLPVSLGDQASISCRSSQSLENSNGNTYLNWYLQKPGQSPQLLIYRVSNRFSGVLDRFSGSGSGTDFTLKISRVEAEDLGVYFCLQLTHVPWTFGGGTKLEIKRSRVTVSSEQKLISEEDLN
notes: Made in the E. coli periplasm through a pelB leader; Tested as periplasmic extract or after purification on GPVI-sepharose; The monomer was isolated by size exclusion for the aggregation assay; also called mscFv 9O12.2; mscFv 9O12
